Test results: PMC3043165 (2011)
Where no end group is shown, it is not given here.

T1: integrin αvβ3 (Homo sapiens, UniProt P06756)
T1 chain 1: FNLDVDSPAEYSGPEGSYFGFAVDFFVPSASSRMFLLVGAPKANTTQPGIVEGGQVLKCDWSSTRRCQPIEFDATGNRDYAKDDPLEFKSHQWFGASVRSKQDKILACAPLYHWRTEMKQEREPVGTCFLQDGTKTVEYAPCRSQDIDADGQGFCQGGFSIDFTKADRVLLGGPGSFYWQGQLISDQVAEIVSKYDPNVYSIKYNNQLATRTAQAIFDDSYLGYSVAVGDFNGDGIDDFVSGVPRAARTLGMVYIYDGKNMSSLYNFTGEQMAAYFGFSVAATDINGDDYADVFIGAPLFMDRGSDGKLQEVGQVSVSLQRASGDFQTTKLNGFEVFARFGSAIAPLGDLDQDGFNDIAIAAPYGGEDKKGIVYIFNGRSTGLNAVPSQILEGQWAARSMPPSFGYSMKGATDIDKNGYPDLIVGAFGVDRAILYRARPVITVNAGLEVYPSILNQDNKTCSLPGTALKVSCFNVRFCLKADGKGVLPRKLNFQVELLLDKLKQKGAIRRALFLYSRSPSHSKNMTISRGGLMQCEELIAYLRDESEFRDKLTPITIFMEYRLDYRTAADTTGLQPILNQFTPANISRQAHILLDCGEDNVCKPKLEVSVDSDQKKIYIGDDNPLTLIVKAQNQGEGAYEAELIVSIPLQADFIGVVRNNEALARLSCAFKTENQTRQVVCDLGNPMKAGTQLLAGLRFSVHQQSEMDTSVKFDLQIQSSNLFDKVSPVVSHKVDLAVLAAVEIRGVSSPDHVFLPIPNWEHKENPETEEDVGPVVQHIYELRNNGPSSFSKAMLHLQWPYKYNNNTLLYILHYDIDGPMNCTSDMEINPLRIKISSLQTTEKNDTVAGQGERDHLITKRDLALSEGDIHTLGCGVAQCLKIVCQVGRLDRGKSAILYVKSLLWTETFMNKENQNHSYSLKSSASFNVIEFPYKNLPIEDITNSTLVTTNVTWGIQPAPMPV
T1 chain 2: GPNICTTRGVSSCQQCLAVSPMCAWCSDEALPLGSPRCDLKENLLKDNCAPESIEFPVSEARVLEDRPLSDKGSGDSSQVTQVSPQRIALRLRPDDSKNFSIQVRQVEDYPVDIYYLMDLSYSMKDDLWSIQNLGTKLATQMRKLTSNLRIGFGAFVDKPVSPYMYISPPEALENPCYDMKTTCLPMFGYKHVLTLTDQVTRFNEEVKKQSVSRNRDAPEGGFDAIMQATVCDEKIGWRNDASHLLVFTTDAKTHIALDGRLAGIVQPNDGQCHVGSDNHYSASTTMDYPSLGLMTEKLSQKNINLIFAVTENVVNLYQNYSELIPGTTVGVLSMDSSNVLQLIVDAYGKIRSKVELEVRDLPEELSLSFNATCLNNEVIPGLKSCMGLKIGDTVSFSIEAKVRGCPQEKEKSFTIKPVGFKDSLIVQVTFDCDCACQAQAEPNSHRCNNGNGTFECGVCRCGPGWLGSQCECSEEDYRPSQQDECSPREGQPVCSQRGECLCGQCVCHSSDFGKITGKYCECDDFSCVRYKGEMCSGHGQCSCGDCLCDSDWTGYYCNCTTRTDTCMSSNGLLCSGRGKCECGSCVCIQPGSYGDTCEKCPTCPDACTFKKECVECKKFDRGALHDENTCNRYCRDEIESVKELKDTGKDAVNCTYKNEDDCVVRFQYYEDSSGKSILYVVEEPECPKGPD

T2: integrin αvβ5 (Homo sapiens, UniProt P06756)
T2 chain 1: T1 chain 1
T2 chain 2: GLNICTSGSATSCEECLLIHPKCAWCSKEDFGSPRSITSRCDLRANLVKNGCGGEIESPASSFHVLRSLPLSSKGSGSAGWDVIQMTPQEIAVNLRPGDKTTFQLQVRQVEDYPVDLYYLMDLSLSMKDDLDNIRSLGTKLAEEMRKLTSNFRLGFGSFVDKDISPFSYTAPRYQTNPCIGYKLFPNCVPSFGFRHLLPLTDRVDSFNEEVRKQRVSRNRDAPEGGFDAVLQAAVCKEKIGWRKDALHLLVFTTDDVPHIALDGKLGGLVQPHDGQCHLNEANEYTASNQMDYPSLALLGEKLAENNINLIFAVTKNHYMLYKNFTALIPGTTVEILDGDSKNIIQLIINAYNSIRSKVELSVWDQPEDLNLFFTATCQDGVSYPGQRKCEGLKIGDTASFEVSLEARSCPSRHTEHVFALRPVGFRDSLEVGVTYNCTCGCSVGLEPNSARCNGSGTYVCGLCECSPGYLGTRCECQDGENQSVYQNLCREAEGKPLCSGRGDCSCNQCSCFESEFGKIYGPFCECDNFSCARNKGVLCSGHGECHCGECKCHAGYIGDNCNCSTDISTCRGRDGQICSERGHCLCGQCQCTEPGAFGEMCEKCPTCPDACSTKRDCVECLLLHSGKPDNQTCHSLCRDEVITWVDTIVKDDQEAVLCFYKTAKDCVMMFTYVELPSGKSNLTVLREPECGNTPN


How the values were obtained:
[1] = molecular target: T1, integrin αvβ3; assay: competitive solid-phase binding assay with biotinylated vitronectin
[2] = molecular target: T2, integrin αvβ5; assay: as above
[3] = molecular target: integrin αIIbβ3 (Homo sapiens, UniProt P08514); assay: competitive solid-phase binding assay with biotinylated fibronectin

| IC50 [1] [nM] | IC50 [2] [nM] | IC50 [3] [nM] | Binder |
| --- | --- | --- | --- |
| 78.5 | > 1000 | > 1000 | GRGDS (not fully specified) [GRGDS-CNP 5% (7 peptides per CNP)] |
| 1.08 | – | – | GRGDS (not fully specified) [GRGDS-CNP 50% (70 peptides per CNP)] |

Second part, the binder before the results:

| Binder | IC50 [1] [nM] | IC50 [2] [nM] | IC50 [3] [nM] |
| --- | --- | --- | --- |
| GRGDS (not fully specified) [GRGDS-CNP 10% (14 peptides per CNP)] | 12.5 | – | – |
| GRGDS (not fully specified) [GRGDS-CNP 20% (28 peptides per CNP)] | 5.21 | – | – |
